“And” between values parts separate entries of the source, which are not always exact repeats. Equal values may be shown once.
Experiments:
[1] = biological target: NOD-derived murine SIRPα (NOD allele of Sirpα) on NOD mouse macrophages (mouse (NOD strain)) (UniProt P97797); assay: graded mCD47-Fc on adherent fresh macrophages, anti-human Fc-HRP colorimetric read-out
[2] = biological target: NOD-derived murine SIRPα (NOD allele of Sirpα) on NOD mouse macrophages (mouse (NOD strain)) (UniProt P97797); assay: graded hCD47-Fc on NOD macrophages pre-treated with a monoclonal antibody to the SIRPα ectodomain (clustered), anti-human Fc-HRP colorimetric read-out
[3] = biological target: NOD-derived murine SIRPα (NOD allele of Sirpα) on NOD mouse macrophages (mouse (NOD strain)) (UniProt P97797); assay: graded hCD47-Fc on NOD macrophages, clustered (anti-SIRPα mAb pre-treatment) against unclustered
[4] = biological target: NOD-derived murine SIRPα (NOD allele of Sirpα) on NOD mouse macrophages (mouse (NOD strain)) (UniProt P97797); assay: graded hCD47-Fc on unmanipulated fresh NOD macrophages (unclustered), anti-human Fc-HRP colorimetric read-out

Chain of UniProt P97797 (P97797 32-513): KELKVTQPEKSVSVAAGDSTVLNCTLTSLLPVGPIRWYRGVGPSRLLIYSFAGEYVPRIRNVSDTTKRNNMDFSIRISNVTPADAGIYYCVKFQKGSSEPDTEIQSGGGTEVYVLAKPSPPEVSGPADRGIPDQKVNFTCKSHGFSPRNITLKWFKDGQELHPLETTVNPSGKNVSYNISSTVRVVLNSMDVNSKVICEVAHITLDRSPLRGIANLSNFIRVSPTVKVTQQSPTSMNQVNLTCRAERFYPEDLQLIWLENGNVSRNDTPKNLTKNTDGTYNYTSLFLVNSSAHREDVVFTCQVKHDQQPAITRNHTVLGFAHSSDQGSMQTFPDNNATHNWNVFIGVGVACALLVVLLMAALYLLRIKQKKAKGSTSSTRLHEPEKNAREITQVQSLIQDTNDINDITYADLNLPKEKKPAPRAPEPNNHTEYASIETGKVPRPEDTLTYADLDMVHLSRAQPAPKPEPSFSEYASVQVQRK

Substance | fold lower Kd than the NOR SIRPα-mCD47 interaction [1] | Kd [2] [nM] | fold rise in affinity, clustered against unclustered [3] [fold] | Kd [4] [nM]
Mouse CD47-Fc (mCD47-Fc) fusion protein (from UniProt Q61735 19-133) (Fc fusion) | 4.7 fold and > 4 fold | – | – | –
human CD47 IgV domain fused to human IgG Fc (hCD47-Fc), made in 293F cells (from UniProt Q08722 19-135) (Fc fusion) | – | 0.16 | > 10 | 1.6

— US20100239578A1
